Target: T1, human fibrinogen (human, UniProt P02671-2 20-644; P02675 31-491; P02679-2 27-437)
T1 construct: fibrinogen A-alpha chain, human; fibrinogen B-beta chain, human; fibrinogen gamma chain, human; Coated on MaxSorb ELISA plates; also called Fbgn; source: bought: Sigma; copies: 2 + 2 + 2
T1 sequence (looked up) 1: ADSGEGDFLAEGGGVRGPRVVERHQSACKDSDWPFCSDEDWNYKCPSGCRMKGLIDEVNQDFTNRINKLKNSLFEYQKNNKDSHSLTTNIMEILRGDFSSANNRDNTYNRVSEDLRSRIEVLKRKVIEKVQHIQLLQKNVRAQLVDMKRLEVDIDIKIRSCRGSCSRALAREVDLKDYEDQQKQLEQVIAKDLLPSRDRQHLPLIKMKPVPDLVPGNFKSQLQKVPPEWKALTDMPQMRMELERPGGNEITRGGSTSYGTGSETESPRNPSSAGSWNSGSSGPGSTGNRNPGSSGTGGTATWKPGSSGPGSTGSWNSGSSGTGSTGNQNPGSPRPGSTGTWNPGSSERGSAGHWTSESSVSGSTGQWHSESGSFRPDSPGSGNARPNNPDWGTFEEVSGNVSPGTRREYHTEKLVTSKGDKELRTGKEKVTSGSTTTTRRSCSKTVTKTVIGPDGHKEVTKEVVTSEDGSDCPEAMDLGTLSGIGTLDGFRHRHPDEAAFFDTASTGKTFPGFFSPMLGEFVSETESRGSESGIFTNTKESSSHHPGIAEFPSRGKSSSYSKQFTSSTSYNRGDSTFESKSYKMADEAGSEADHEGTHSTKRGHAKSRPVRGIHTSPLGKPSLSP
T1 sequence (looked up) 2: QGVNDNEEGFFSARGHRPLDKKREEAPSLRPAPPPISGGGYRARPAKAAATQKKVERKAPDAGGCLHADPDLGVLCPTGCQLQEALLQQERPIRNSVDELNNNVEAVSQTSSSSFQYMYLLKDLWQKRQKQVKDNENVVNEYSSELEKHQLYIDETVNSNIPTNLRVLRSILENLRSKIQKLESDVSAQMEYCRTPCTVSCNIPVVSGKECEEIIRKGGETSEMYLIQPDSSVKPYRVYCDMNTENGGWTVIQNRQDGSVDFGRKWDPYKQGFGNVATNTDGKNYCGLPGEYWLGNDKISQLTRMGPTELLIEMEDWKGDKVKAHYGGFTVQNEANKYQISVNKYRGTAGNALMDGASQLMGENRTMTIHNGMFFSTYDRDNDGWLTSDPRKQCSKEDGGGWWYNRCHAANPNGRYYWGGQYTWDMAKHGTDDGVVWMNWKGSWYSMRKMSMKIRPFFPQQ
T1 sequence (looked up) 3: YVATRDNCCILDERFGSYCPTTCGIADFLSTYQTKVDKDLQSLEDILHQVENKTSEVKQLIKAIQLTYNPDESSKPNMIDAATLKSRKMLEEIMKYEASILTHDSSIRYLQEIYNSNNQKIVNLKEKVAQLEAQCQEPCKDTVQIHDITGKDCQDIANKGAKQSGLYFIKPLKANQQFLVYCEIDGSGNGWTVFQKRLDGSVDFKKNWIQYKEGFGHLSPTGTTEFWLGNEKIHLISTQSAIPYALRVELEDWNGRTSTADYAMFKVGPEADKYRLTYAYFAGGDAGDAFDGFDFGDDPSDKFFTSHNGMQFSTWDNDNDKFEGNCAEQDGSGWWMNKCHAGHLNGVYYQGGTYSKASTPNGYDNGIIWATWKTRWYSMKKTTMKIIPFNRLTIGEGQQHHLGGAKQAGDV
Assay: ELISA; human fibrinogen coated overnight on MaxSorb 96-well plates, wells treated with PBS (fibrinogen) or 100 nM alpha-thrombin in 1% sodium-citrate/PBS for one hour at room temperature (fibrin); ClfA in 1% sodium-citrate added at increasing concentrations for one hour; bound ClfA detected with polyclonal anti-ClfA and anti-rabbit-HRP; non-linear regression, one-site saturation
Details: both partners purified

B1: clumping factor A (ClfA), purified recombinant (natural protein)
chain: not shown
notes: clumping factor A (ClfA) of Staphylococcus aureus; strain Newman is the strain worked with; it would add an N-terminal His tag (surmised); also called His6-ClfA; source: E. coli BL21(DE3), purified (Ni-NTA)
- Kd: 395 ± 51.8 nM

Source: paper PMC3197598, “Preventing Staphylococcus aureus Sepsis through the Inhibition of Its Agglutination in Blood” (PLoS Pathogens, 2011)
